T1: human BMP6 (Bone Morphogenetic Protein 6) (human, UniProt P22004 382-513, limits assumed)
T1 sequence (looked up): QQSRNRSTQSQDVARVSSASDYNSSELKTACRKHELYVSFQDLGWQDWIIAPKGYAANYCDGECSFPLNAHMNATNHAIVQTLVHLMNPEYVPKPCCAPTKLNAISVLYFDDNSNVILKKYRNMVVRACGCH

T2: human BMP7 (Bone Morphogenetic Protein 7) (human, UniProt P18075 293-431)
T2 sequence (looked up): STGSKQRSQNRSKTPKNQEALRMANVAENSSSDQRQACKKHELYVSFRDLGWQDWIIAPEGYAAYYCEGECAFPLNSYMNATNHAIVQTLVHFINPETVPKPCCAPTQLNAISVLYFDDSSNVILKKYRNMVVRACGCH

T3: human BMP5 (Bone Morphogenetic Protein 5) (human, UniProt P22003 317-454, limits assumed)
T3 sequence (looked up): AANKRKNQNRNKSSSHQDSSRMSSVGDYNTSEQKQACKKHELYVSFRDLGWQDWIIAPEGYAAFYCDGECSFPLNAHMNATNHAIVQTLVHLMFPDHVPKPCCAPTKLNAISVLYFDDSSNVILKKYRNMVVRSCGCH

T4: hBaffR (human, UniProt Q96RJ3)
T4 construct: Unrelated control antigen no
T4 sequence (control antigen, looked up): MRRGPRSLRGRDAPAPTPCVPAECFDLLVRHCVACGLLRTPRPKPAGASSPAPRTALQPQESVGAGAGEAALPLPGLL

T5: Mouse BMP6 (mouse, UniProt P20722)
T5 construct: Antigen no
T5 sequence (ligand, looked up): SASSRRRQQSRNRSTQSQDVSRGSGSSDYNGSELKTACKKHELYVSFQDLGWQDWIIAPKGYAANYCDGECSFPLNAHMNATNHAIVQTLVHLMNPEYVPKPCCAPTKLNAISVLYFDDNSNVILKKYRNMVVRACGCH


Columns and labels:
[1] = target: T1, human BMP6 (Bone Morphogenetic Protein …); assay: cell-based or functional assay
[2] = target: T2, human BMP7 (Bone Morphogenetic Protein …); assay: cell-based or functional assay
[3] = target: T3, human BMP5 (Bone Morphogenetic Protein …); assay: cell-based or functional assay
[4] = target: human BMP2 (Bone Morphogenetic Protein 2) (human, UniProt P12643 283-396); assay: cell-based or functional assay
human BMP2 (Bone Morphogenetic Protein 2), sequence (P12643 283-396 limits assumed): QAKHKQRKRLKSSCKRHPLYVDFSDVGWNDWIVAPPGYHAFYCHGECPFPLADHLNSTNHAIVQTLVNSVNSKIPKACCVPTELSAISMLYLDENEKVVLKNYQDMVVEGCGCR

[5] = target: T1, human BMP6 (Bone Morphogenetic Protein …); assay: cell-based or functional assay; remark: listed apart in the source
[6] = target: T1, human BMP6 (Bone Morphogenetic Protein …); assay: cell-based or functional assay; remark: listed apart in the source
[7] = target: T1, human BMP6 (Bone Morphogenetic Protein …); assay: method not stated (Table 8, KD(nM) BMP6)
[8] = target: human BMP7 (Bone Morphogenetic Protein 7) (human) (UniProt P18075); assay: ELISA binding assay
[9] = target: human BMP7 (Bone Morphogenetic Protein 7) (human) (UniProt P18075); assay: cell-based or functional assay
hBaffR = target: T4, hBaffR; assay: ELISA binding assay, fluorescence signal intensity (anti-Fab-AP detection); antibody concentration not given
BSA = target: T6, BSA (bovine, UniProt P02769); assay: as above
T6 construct: Unrelated control antigen no
T6 sequence (P02769 25-607 limits assumed): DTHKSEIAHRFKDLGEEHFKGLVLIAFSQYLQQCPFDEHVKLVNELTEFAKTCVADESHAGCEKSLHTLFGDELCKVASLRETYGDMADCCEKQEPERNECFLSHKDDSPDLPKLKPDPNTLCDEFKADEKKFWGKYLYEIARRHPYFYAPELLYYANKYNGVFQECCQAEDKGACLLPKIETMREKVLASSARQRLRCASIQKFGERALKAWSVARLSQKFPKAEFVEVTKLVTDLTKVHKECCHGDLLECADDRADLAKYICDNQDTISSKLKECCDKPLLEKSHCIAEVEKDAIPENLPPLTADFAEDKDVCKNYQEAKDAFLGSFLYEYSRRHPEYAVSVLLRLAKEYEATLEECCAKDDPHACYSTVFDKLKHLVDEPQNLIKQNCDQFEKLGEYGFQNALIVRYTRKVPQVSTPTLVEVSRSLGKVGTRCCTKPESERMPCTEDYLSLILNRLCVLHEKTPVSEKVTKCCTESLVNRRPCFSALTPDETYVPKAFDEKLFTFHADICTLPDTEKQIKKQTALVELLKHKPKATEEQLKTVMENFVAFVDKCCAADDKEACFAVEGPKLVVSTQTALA

[10] = target: T3, human BMP5 (Bone Morphogenetic Protein …); assay: as above
Mouse BMP6 = target: T5, Mouse BMP6; assay: ELISA binding assay, fluorescence signal intensity (anti-Fab-AP detection); one bar per antigen, antibody concentration not given

| IC50, BMP reporter (BRE-luc) activity in Hep3B [1] [pM] | selectivity window against BMP6, BMP reporter gene assay [2] [fold] | selectivity window against BMP6, BMP reporter gene assay [3] [fold] | selectivity window against BMP6, BMP reporter gene assay [4] [fold] | IC50(ug/ml) BMP6 reporter [5] [µg/mL] | IC50 (read off the curve), BMP reporter gene assay [panel Ab5] [6] [pM] | Kd [7] [pM] | IC50 (read off the curve), BMP reporter gene assay [panel Ab6] [6] [pM] | selectivity, affinity to human BMP6 over affinity to human BMP7 [8] [fold] | selectivity window against BMP6, BMP reporter gene assay [9] [fold] | IC50 (read off the curve), BMP reporter gene assay [panel Ab7] [6] [pM] | binding result (hBaffR) | binding result (BSA) | binding result [10] | binding result (Mouse BMP6) | Binder |
| --- | --- | --- | --- | --- | --- | --- | --- | --- | --- | --- | --- | --- | --- | --- | --- |
| 400 | ≥ 500 | ≥ 500 | ≥ 500 | 0.06 | ~500 | 100 | – | – | – | – | – | – | – | – | Antibody 5 (antibody, human IgG1, lambda, V domains shown, also called Ab 5) VH: QVQLVESGGGLVKPGGSLRLSCAASGFTFSSYVVHWVRQAPGKGLEWVGRIKRESSSYTTMYAAPVKGRFTISRDDSKNTLYLQMNSLKTEDTAVYYCARVERSKSGFDNWGQGTLVTVSS VL: QSVLTQPPSVSGAPGQRVTISCTGSSSNIGAGYSVHWYQQLPGTAPKLLIYGQSERPSGVPDRFSGSKSGTSASLAITGLQAEDEADYYCQSWDSSQTLVVFGGGTKLTVLG |
| 400 | ≥ 500 | ≥ 500 | ≥ 500 | 0.08 | – | < 100 | ~500 | – | – | – | – | – | – | – | Antibody 6 (antibody, human IgG1, lambda, V domains shown, also called Ab 6) VH: QVQLVESGGGLVKPGGSLRLSCAASGFTFSSYVVHWVRQAPGKGLEWVGRTRHSDMGYATSYAAPVKGRFTISRDDSKNTLYLQMNSLKTEDTAVYYCARVERSKSGFDNWGQGTLVTVSS VL: QSVLTQPPSVSGAPGQRVTISCTGSSSNIGAGYSVHWYQQLPGTAPKLLIYGQSERPSGVPDRFSGSKSGTSASLAITGLQAEDEADYYCQSWDSSQTLVVFGGGTKLTVLG |
| 400 | – | ≥ 500 | ≥ 500 | 0.07 | – | 100 | – | > 500 | > 500 | ~500 | no binding | no binding | no binding | binds | Antibody 7 (antibody, human IgG1, lambda, V domains shown, also called Ab 7; Ab7) VH: QVQLVESGGGLVKPGGSLRLSCAASGFTFSSYVVHWVRQAPGKGLEWVGRIRLETHGYAAEYAASVKGRFTISRDDSKNTLYLQMNSLKTEDTAVYYCARVERSKSGFDNWGQGTLVTVSS VL: QSVLTQPPSVSGAPGQRVTISCTGSSSNIGAGYSVHWYQQLPGTAPKLLIYGQSERPSGVPDRFSGSKSGTSASLAITGLQAEDEADYYCQSWDSSQTLVVFGGGTKLTVLG |

— patent publication US20210130428A1 (Novartis, published 2021)
